Laboratory results published in paper PMC2670979 (2009).

B1: GST-Miro1 WT [not stated] / TRAK2 (amino acids 476–700) [modified: 35S-methionine label; 35S-methionine label] [not stated] (parent complex)
chain 1: MKKDVRILLVGEPRVGKTSLIMSLVSEEFPEEVPPRAEEITIPADVTPERVPTHIVDYSEAEQSDEQLHQEISQANVICIVYAVNNKHSIDKVTSRWIPLINERTDKDSRLPLILVGNKSDLVEYSSMETILPIMNQYTEIETCVECSAKNLKNISELFYYAQKAVLHPTGPLYCPEEKEMKPACIKALTRIFKISDQDNDGTLNDAELNFFQRICFNTPLAPQALEDVKNVVRKHISDGVADSGLTLKGFLFLHTLFIQRGRHETTWTVLRRFGYDDDLDLTPEYLFPLLKIPPDCTTELNHHAYLFLQSTFDKHDLDRDCALSPDELKDLFKVFPYIPWGPDVNNTVCTNERGWITYQGFLSQWTLTTYLDVQRCLEYLGYLGYSILTEQESQASAVTVTRDKKIDLQKKQTQRNVFRCNVIGVKNCGKSGVLQALLGRNLMRQKKIREDHKSYYAINTVYVYGQEKYLLLHDISESEFLTEAEIICDVVCLVYDVSNPKSFEYCARIFKQHFMDSRIPCLIVAAKSDLHEVKQEYSISPTDFCRKHKMPPPQAFTCNTADAPSKDIFVKLTTMAMYPHVTQADLKSSTFWLRASFGATVFAVLGFAMYKALLKQR
chain 2: EDSDLATALHRLSLRRQNYLSEKQFFAEEWERKLQILAEQEEEVSSCEALTENLASFCTDQSETTELGSAGCLRGFMPEKLQIVKPLEGSQTLHHWQQLAQPNLGTILDPRPGVITKGFTQMPKDAVYHISDLEEDEEVGITFQVQQPLQLEQKPAPPPPVTGIFLPPMTSAGGPVSVATSNPGKCLSFTNSTFTFTTCRILHPSDITQVTPSSGFPSLSCGSSA

Variants of: B1
Assay: GST pull-down of in vitro translated 35S-labeled protein; 2 mM Ca2+; normalized to 100 at 0 mM Ca2+; parent: 110; read off a plot

Row | screen value | Variant
1 | ~120 | chain 1 E208K, chain 1 E328K
